Data from article PMC9039505, “Ethylene precisely regulates anthocyanin synthesis in apple via a module comprising MdEIL1, MdMYB1, and MdMYB17”.

T1: MdMYB1 (apple, UniProt A0SQ35 1-243)
T1 sequence: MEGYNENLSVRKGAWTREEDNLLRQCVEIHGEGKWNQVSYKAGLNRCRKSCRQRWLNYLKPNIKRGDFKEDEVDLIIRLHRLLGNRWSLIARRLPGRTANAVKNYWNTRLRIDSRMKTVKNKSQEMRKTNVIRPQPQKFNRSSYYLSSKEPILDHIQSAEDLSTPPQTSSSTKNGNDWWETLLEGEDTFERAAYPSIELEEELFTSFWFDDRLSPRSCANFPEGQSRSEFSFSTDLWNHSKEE

T2: MdEIL1 (apple, UniProt D5L144 1-659)
T2 sequence: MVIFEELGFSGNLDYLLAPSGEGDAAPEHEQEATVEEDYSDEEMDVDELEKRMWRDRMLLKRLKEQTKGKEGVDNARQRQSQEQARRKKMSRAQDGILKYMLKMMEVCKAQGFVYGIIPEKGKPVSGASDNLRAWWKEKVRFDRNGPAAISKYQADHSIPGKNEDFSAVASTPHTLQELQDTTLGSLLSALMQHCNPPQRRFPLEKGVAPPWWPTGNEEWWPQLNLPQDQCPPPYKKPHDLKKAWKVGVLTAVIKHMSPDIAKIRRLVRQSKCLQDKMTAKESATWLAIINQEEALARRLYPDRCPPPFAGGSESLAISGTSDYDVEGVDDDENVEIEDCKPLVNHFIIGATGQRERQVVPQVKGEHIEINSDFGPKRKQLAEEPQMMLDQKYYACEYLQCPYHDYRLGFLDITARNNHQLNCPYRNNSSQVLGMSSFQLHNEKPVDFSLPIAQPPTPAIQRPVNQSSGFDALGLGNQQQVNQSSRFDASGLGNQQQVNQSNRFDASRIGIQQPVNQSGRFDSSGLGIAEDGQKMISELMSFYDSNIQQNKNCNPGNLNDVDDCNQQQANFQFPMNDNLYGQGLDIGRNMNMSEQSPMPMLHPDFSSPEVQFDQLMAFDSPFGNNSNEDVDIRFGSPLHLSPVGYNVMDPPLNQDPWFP

T3: MdMYB17 (apple, UniProt D9ZJ54 1-196)
T3 sequence: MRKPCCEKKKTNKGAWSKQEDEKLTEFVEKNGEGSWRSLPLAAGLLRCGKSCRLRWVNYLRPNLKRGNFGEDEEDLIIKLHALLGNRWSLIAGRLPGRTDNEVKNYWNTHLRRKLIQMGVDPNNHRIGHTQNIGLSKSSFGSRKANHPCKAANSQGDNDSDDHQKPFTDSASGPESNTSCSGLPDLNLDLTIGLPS


Experiments:
MdMYB1 = target: T1, MdMYB1; assay: EMSA; LightShift Chemiluminescent EMSA kit; buffer, salt, pH and temperature not stated; cold competitor 200-300-fold; details: protein: recombinant; tags: His (pET-32a fusion); label: biotin; blunt
MdEIL1 = target: T2, MdEIL1; assay: as above; details: protein: recombinant; tags: His (pET-32a fusion); label: biotin; blunt
MdMYB17 [1] = target: T3, MdMYB17; assay: as above; details: protein: recombinant; tags: His (pET-32a fusion); label: biotin; blunt
MdMYB17 [2] = target: T3, MdMYB17; assay: competition; unlabeled mutant competitor; LightShift Chemiluminescent EMSA kit; buffer, salt, pH and temperature not stated; cold competitor 200-300-fold; details: protein: recombinant; tags: His (pET-32a fusion); blunt

| Binder | binding result (MdMYB17 [1]) | binding result (MdMYB17 [2]) | further results |
| --- | --- | --- | --- |
| MdMYB17 promoter MBS3 probe (dsDNA) DNA 1: AGATGTGTAGTTAAATTACCCAACTGTAAGTCAAGCGGAGTAGTCA DNA 2: TGACTACTCCGCTTGACTTACAGTTGGGTAATTTAACTACACATCT | – | – | binding result (MdMYB1): binds |
| MdMYB17 promoter ATGTA1 probe (dsDNA) DNA 1: TCAAATTAATTATAAATTAAATGTAACCATGACAAGGAAAGTGTC DNA 2: GACACTTTCCTTGTCATGGTTACATTTAATTTATAATTAATTTGA | – | – | binding result (MdEIL1): binds |
| MdEIL1 promoter MRE2 probe (dsDNA) DNA 1: ATTGTTCTGTTTATTGTTTAGGTTAATCTGTTCTTATCTGC DNA 2: GCAGATAAGAACAGATTAACCTAAACAATAAACAGAACAAT | binds | – | – |
| MdUFGT promoter MBS probe (dsDNA) DNA 1: GTCAAGTATGGTACAAACAACTGCAATAAAATATTGCCAC DNA 2: GTGGCAATATTTTATTGCAGTTGTTTGTACCATACTTGAC | binds | – | – |
| MdUFGT promoter MBS mutated (dsDNA) DNA 1: GTCAAGTATGGTACAAACGACTACAATAAAATATTGCCAC DNA 2: GTGGCAATATTTTATTGTAGTCGTTTGTACCATACTTGAC | – | no binding | – |
| MdDFR promoter MBS probe (dsDNA) DNA 1: AAACTCCCTAAATAAACCAGTTGTACTGGTGGATAGGCCT DNA 2: AGGCCTATCCACCAGTACAACTGGTTTATTTAGGGAGTTT | binds | – | – |
| MdDFR promoter MBS mutated (dsDNA) DNA 1: AAACTCCCTAAATAAACCGGTCGTACTGGTGGATAGGCCT DNA 2: AGGCCTATCCACCAGTACGACCGGTTTATTTAGGGAGTTT | – | no binding | – |
| MdMYB1 promoter MBS probe (dsDNA) DNA 1: AGACTGGTAGCTATTAACAACTGTTGGAATGTTTTAAACT DNA 2: AGTTTAAAACATTCCAACAGTTGTTAATAGCTACCAGTCT | binds | – | – |
| MdMYB1 promoter MBS mutated (dsDNA) DNA 1: AGACTGGTAGCTATTAACGACTATTGGAATGTTTTAAACT DNA 2: AGTTTAAAACATTCCAATAGTCGTTAATAGCTACCAGTCT | – | no binding | – |
